Laboratory results as given in PMC9779223.

How the values were obtained:
P09493 [1] = assay: viscosity measurement; falling ball microviscometer, 20 °C; Tpm 1.0 mg/mL (15 µM) with TnT1 at molar ratio 1/1; 30 mM HEPES-Na pH 7.3, 100 mM NaCl, 4 mM DTT; excess viscosity over buffer; conditions: other: viscosity measurement
P09493 [2] = assay: viscosity measurement; falling ball microviscometer, 20 °C; Tpm 1.0 mg/mL (15 µM), without TnT1; 30 mM HEPES-Na pH 7.3, 100 mM NaCl, 4 mM DTT; excess viscosity over buffer as read-out of the end-to-end overlap junction of Tpm dimers; conditions: other: viscosity measurement
[3] = molecular target: Human Tpm1.1 (α-Tpm) I284V (human) (UniProt P09493); assay: ITC; MicroCal PEAQ-ITC, 25 °C; 30 mM HEPES-Na pH 7.3, 100 mM NaCl, 1 mM DTT; sample in the cell 30 to 60 µM, ligand in the syringe 200 to 700 µM; one set of binding sites
Sequence of Human Tpm1.1 (α-Tpm) I284V (human) (P09493 other isoform, or with tags, fused parts or gaps I284V | I284V): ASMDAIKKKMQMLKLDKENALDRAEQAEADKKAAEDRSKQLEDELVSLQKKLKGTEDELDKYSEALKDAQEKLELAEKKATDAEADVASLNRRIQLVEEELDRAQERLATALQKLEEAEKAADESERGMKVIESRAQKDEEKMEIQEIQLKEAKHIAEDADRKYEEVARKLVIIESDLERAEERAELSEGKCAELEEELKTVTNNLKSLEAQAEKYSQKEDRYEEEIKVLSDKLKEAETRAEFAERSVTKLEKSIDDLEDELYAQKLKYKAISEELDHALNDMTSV

[4] = molecular target: Human Tpm1.1 (α-Tpm) M281T (human) (UniProt P09493); assay: as above
Sequence of Human Tpm1.1 (α-Tpm) M281T (human) (P09493 other isoform, or with tags, fused parts or gaps M281T | M281T): as the sequence (P09493 other isoform, or with tags, fused parts or gaps I284V | I284V) above, with M283T, V286I counted along it

[5] = molecular target: Premixed complex of Tpm WT 1–133 and Tpm WT 134–284 (human) (UniProt P09493); assay: as above
Sequence of Premixed complex of Tpm WT 1–133 and Tpm WT 134–284 (human) (P09493 other isoform, or with tags, fused parts or gaps, chain 1 of 2): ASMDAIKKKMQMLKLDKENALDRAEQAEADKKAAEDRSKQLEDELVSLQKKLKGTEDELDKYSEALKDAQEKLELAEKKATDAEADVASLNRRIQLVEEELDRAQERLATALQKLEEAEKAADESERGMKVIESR
Sequence of Premixed complex of Tpm WT 1–133 and Tpm WT 134–284 (human) (P09493 134-284, chain 2 of 2): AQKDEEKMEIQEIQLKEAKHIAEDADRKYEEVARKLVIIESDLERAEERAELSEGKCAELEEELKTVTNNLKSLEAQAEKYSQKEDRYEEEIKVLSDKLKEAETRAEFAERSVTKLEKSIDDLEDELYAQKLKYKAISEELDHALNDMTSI

[6] = molecular target: Human Tpm1.1 (α-Tpm) K15N (human) (UniProt P09493); assay: as above
Sequence of Human Tpm1.1 (α-Tpm) K15N (human) (P09493 other isoform, or with tags, fused parts or gaps K15N | K15N): as the sequence (P09493 other isoform, or with tags, fused parts or gaps I284V | I284V) above, with K17N, V286I counted along it

[7] = molecular target: Human Tpm1.1 (α-Tpm) WT (human) (UniProt P09493); assay: as above
Sequence of Human Tpm1.1 (α-Tpm) WT (human) (P09493 other isoform, or with tags, fused parts or gaps): as the sequence (P09493 other isoform, or with tags, fused parts or gaps I284V | I284V) above, with V286I counted along it

[8] = molecular target: Human Tpm1.1 (α-Tpm) M8R (human) (UniProt P09493); assay: as above
Sequence of Human Tpm1.1 (α-Tpm) M8R (human) (P09493 other isoform, or with tags, fused parts or gaps M8R): as the sequence (P09493 other isoform, or with tags, fused parts or gaps I284V | I284V) above, with M10R, V286I counted along it

[9] = molecular target: Tropomyosin C-terminal fragment Tpm WT 134–284 (human) (UniProt P09493); assay: as above
Sequence of Tropomyosin C-terminal fragment Tpm WT 134–284 (human) (P09493 134-284): as the sequence (P09493 134-284, chain 2 of 2) above

[10] = molecular target: Human Tpm1.1 (α-Tpm) A277V (human) (UniProt P09493); assay: as above
Sequence of Human Tpm1.1 (α-Tpm) A277V (human) (P09493 other isoform, or with tags, fused parts or gaps A277V | A277V): as the sequence (P09493 other isoform, or with tags, fused parts or gaps I284V | I284V) above, with A279V, V286I counted along it

[11] = molecular target: Premixed complex of TnT1 and Tpm WT 134–284 (human) (UniProt P09493); assay: as above

Human Tpm1.1 (α-Tpm) WT
excess viscosity (P09493 [1]): 0.992 ± 0.001 mPa·s | excess viscosity (P09493 [2]): 0.125 mPa·s

Human adult cardiac troponin T fragment TnT1 (TnT1–158) (domain or fragment)
Kd [3]: 1890 nM | dH [3]: -14.4 kcal/mol | stoichiometry N [3]: 0.775 | Kd [4]: 1520 nM | dH [4]: -8.83 kcal/mol | stoichiometry N [4]: 0.857 | Kd [5]: 900 nM | dH [5]: -7.7 kcal/mol | stoichiometry N [5]: 0.69 | Kd [6]: 1300 nM | dH [6]: -12.1 kcal/mol | stoichiometry N [6]: 1.05 | Kd [7]: 910 nM | dH [7]: -9.69 kcal/mol | stoichiometry N [7]: 0.629 | Kd [8]: 1900 nM | dH [8]: 2.51 kcal/mol | stoichiometry N [8]: 1.15 | Kd [9]: 1900 nM | dH [9]: 2.1 kcal/mol | stoichiometry N [9]: 1.06 | Kd [10]: 2510 nM | dH [10]: -10.6 kcal/mol | stoichiometry N [10]: 1.03

Tropomyosin N-terminal fragment Tpm WT 1–133 (from UniProt P09493 1-133) (domain or fragment)
Kd [11]: 1700 nM | dH [11]: -6.5 kcal/mol | stoichiometry N [11]: 1.07
